Data published in publication PMC10397247.

Assays:
4H123-AA = biological target: T1, 4H123-AA; experiment: two-hybrid library CCmax;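 also: natural log of median RNA to DNA barcode read ratio; higher means stronger binding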
T1 chain: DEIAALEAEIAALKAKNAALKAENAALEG

4H1310-AA = biological target: T2, 4H1310-AA; experiment: two-hybrid library CCmax; conditions: mean of both orientations;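 also: natural log of median RNA to DNA barcode read ratio; higher means stronger binding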
T2 chain: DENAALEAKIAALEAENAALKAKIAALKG

4H1351-AA = biological target: T3, 4H1351-AA; experiment: two-hybrid library CCmax; conditions: mean of both orientations;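 also: natural log of median RNA to DNA barcode read ratio; higher means stronger binding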
T3 chain: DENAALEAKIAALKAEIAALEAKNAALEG

4H1388-AA = biological target: T4, 4H1388-AA; experiment: two-hybrid library CCmax; conditions: mean of both orientations;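 also: natural log of median RNA to DNA barcode read ratio; higher means stronger binding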
T4 chain: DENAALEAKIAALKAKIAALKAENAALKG

4H1401-AA = biological target: T5, 4H1401-AA; experiment: two-hybrid library CCmax; conditions: mean of both orientations;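 also: natural log of median RNA to DNA barcode read ratio; higher means stronger binding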
T5 chain: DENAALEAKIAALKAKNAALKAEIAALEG

4H1513-AA = biological target: T6, 4H1513-AA; experiment: two-hybrid library CCmax; conditions: mean of both orientations;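 also: natural log of median RNA to DNA barcode read ratio; higher means stronger binding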
T6 chain: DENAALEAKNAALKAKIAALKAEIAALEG

4H1594-AA = biological target: T7, 4H1594-AA; experiment: two-hybrid library CCmax; conditions: mean of both orientations
T7 chain: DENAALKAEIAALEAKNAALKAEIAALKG

4H1629-AA = biological target: T8, 4H1629-AA; experiment: two-hybrid library CCmax; conditions: mean of both orientations
T8 chain: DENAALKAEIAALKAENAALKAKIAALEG

4H1845-AA = biological target: T9, 4H1845-AA; experiment: two-hybrid library CCmax; conditions: mean of both orientations
T9 chain: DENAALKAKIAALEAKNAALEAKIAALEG

4H1874-AA = biological target: T10, 4H1874-AA; experiment: two-hybrid library CCmax; conditions: mean of both orientations
T10 chain: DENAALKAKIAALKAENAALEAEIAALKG

4H2198-AA = biological target: T11, 4H2198-AA; experiment: two-hybrid library CCmax; conditions: mean of both orientations
T11 chain: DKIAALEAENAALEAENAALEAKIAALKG

4H2553-AA = biological target: T12, 4H2553-AA; experiment: two-hybrid library CCmax; conditions: mean of both orientations
T12 chain: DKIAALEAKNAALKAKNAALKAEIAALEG

4H2611-AA = biological target: T13, 4H2611-AA; experiment: two-hybrid library CCmax; conditions: mean of both orientations
T13 chain: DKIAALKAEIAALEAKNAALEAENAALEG

4H2620-AA = biological target: T14, 4H2620-AA; experiment: two-hybrid library CCmax; conditions: mean of both orientations
T14 chain: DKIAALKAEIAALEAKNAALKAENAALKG

4H2648-AA = biological target: T15, 4H2648-AA; experiment: two-hybrid library CCmax; conditions: mean of both orientations
T15 chain: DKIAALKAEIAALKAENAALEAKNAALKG

4H2907-AA = biological target: T16, 4H2907-AA; experiment: two-hybrid library CCmax; conditions: mean of both orientations
T16 chain: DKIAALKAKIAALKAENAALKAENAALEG

4H3056-AA = biological target: T17, 4H3056-AA; experiment: two-hybrid library CCmax; conditions: mean of both orientations
T17 chain: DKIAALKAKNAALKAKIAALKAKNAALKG

4H3133-AA = biological target: T18, 4H3133-AA; experiment: two-hybrid library CCmax; conditions: mean of both orientations
T18 chain: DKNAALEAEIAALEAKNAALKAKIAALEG

4H3162-AA = biological target: T19, 4H3162-AA; experiment: two-hybrid library CCmax; conditions: mean of both orientations
T19 chain: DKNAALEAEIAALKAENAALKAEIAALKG

4H32-AA = biological target: T20, 4H32-AA; experiment: two-hybrid library CCmax; conditions: mean of both orientations
T20 chain: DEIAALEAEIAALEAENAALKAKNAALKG

4H3378-AA = biological target: T21, 4H3378-AA; experiment: two-hybrid library CCmax
T21 chain: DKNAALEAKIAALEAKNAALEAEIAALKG

4H340-AA = biological target: T22, 4H340-AA; experiment: two-hybrid library CCmax; conditions: mean of both orientations
T22 chain: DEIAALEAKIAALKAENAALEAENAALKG

4H3413-AA = biological target: T23, 4H3413-AA; experiment: two-hybrid library CCmax; conditions: mean of both orientations
T23 chain: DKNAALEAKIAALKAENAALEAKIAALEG

4H3588-AA = biological target: T24, 4H3588-AA; experiment: two-hybrid library CCmax; conditions: mean of both orientations
T24 chain: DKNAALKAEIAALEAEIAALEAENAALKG

4H3606-AA = biological target: T25, 4H3606-AA; experiment: two-hybrid library CCmax; conditions: mean of both orientations
T25 chain: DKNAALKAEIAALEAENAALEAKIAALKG

4H3631-AA = biological target: T26, 4H3631-AA; experiment: two-hybrid library CCmax; conditions: mean of both orientations
T26 chain: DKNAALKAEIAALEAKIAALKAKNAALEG

4H3697-AA = biological target: T27, 4H3697-AA; experiment: two-hybrid library CCmax; conditions: mean of both orientations
T27 chain: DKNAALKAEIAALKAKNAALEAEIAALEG

4H3718-AA = biological target: T28, 4H3718-AA; experiment: two-hybrid library CCmax; conditions: mean of both orientations
T28 chain: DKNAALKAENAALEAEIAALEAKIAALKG

4H384-AA = biological target: T29, 4H384-AA; experiment: two-hybrid library CCmax; conditions: mean of both orientations
T29 chain: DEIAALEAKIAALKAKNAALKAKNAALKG

4H3865-AA = biological target: T30, 4H3865-AA; experiment: two-hybrid library CCmax; conditions: mean of both orientations
T30 chain: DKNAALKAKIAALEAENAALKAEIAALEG

4H697-AA = biological target: T31, 4H697-AA; experiment: two-hybrid library CCmax; conditions: mean of both orientations
T31 chain: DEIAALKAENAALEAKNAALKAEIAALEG

4H982-AA = biological target: T32, 4H982-AA; experiment: two-hybrid library CCmax; conditions: mean of both orientations
T32 chain: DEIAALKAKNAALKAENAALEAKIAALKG

4H1393-bN = biological target: T33, 4H1393-bN; experiment: two-hybrid library CCNG1
T33 chain: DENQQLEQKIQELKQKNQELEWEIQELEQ

4H1449-bN = biological target: T34, 4H1449-bN; experiment: two-hybrid library CCNG1
T34 chain: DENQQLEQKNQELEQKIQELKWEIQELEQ

4H1629-bN = biological target: T35, 4H1629-bN; experiment: two-hybrid library CCNG1
T35 chain: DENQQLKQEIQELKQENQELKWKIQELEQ

4H1710-bN = biological target: T36, 4H1710-bN; experiment: two-hybrid library CCNG1
T36 chain: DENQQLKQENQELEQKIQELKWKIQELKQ

4H1804-bN = biological target: T37, 4H1804-bN; experiment: two-hybrid library CCNG1
T37 chain: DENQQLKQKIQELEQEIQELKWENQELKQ

4H1985-bN = biological target: T38, 4H1985-bN; experiment: two-hybrid library CCNG1
T38 chain: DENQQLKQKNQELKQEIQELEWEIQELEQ

4H3129-bN = biological target: T39, 4H3129-bN; experiment: two-hybrid library CCNG1
T39 chain: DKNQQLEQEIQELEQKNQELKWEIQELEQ

4H3172-bN = biological target: T40, 4H3172-bN; experiment: two-hybrid library CCNG1
T40 chain: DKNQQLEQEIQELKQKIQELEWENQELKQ

4H3414-bN = biological target: T41, 4H3414-bN; experiment: two-hybrid library CCNG1
T41 chain: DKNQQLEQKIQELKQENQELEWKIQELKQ

4H3631-bN = biological target: T42, 4H3631-bN; experiment: two-hybrid library CCNG1
T42 chain: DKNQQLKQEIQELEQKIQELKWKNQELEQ

4H3638-bN = biological target: T43, 4H3638-bN; experiment: two-hybrid library CCNG1
T43 chain: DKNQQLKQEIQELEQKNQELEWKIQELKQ

4H3817-bN = biological target: T44, 4H3817-bN; experiment: two-hybrid library CCNG1
T44 chain: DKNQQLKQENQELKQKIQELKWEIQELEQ

4H3974-bN = biological target: T45, 4H3974-bN; experiment: two-hybrid library CCNG1
T45 chain: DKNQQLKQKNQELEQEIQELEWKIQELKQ

4H570-bN = biological target: T46, 4H570-bN; experiment: two-hybrid library CCNG1
T46 chain: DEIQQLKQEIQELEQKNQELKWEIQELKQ

4H584-bN = biological target: T47, 4H584-bN; experiment: two-hybrid library CCNG1
T47 chain: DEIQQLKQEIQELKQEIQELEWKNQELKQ

4H619-bN = biological target: T48, 4H619-bN; experiment: two-hybrid library CCNG1
T48 chain: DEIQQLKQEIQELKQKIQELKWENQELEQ

4H850-bA = biological target: T49, 4H850-bA; experiment: two-hybrid library CCNG1
T49 chain: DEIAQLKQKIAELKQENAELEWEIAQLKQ

4H850-bN = biological target: T50, 4H850-bN; experiment: two-hybrid library CCNG1
T50 chain: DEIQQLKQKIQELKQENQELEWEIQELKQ

4H906-bN = biological target: T51, 4H906-bN; experiment: two-hybrid library CCNG1
T51 chain: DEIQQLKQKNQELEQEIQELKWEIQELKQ

DEIAALEAEIAALKAKNAALKAENAALEG [4H123-AA]
interaction score (4H123-AA): -1.3
interaction score (4H1310-AA): -2
interaction score (4H1351-AA): -0.328
interaction score (4H1388-AA): -0.318
interaction score (4H1401-AA): -1.83
interaction score (4H1513-AA): -1.7
interaction score (4H1594-AA): -1.9
interaction score (4H1629-AA): -1.79
interaction score (4H1845-AA): -1.73
interaction score (4H1874-AA): -0.134
interaction score (4H2198-AA): -0.461
interaction score (4H2553-AA): -1.8
interaction score (4H2611-AA): 0.00349
interaction score (4H2620-AA): 0.675
interaction score (4H2648-AA): 2.1
interaction score (4H2907-AA): 0.0402
interaction score (4H3056-AA): -2.08
interaction score (4H3133-AA): -2.05
interaction score (4H3162-AA): -1.32
interaction score (4H32-AA): 1.79
interaction score (4H3378-AA): -1.89
interaction score (4H340-AA): 1.64
interaction score (4H3413-AA): -1.35
interaction score (4H3588-AA): -0.454
interaction score (4H3606-AA): 1.04
interaction score (4H3631-AA): -0.979
interaction score (4H3697-AA): -1.64
interaction score (4H3718-AA): -0.602
interaction score (4H384-AA): -0.635
interaction score (4H3865-AA): -1.93
interaction score (4H697-AA): -0.781
interaction score (4H982-AA): -1.15

DENQQLEQKIQELKQKNQELEWEIQELEQ [4H1393-bN]
interaction score (4H1393-bN): -1.33
interaction score (4H1449-bN): -0.996
interaction score (4H1629-bN): -0.818
interaction score (4H1710-bN): -1.7
interaction score (4H1804-bN): -0.711
interaction score (4H1985-bN): -1.58
interaction score (4H3129-bN): -0.903
interaction score (4H3172-bN): -1.92
interaction score (4H3414-bN): -1.76
interaction score (4H3631-bN): -1.03
interaction score (4H3638-bN): 0.818
interaction score (4H3817-bN): -1.41
interaction score (4H3974-bN): -0.815
interaction score (4H570-bN): -2.48
interaction score (4H584-bN): -2.15
interaction score (4H619-bN): -0.97
interaction score (4H850-bA): -0.881
interaction score (4H850-bN): -1.57
interaction score (4H906-bN): -0.497
